Tests used:
[1] = target: T15 peptide derived from the human α-tubulin αK40 loop (human)
[2] = target: T9 peptide derived from the human α-tubulin αK40 loop (human)
[3] = target: free alpha/beta-tubulin dimers from porcine brain (pig (purified from porcine brain)) (UniProt P02550)
Chain of UniProt P02550 (P02550 whole entry, chain 1 of 2): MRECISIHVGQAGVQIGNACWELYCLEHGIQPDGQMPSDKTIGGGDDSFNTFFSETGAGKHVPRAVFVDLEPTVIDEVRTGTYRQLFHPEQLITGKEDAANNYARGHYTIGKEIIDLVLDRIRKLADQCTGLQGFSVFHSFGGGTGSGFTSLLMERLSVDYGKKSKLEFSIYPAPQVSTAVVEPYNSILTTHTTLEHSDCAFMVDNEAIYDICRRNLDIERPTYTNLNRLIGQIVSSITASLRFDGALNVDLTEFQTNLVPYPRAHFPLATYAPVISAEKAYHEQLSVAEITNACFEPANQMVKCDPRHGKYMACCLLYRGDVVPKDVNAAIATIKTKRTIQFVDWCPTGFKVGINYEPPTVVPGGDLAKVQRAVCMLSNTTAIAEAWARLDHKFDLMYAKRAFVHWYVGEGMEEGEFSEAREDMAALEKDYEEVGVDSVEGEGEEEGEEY
Chain of UniProt P02550 (P02554 whole entry, chain 2 of 2, further chain): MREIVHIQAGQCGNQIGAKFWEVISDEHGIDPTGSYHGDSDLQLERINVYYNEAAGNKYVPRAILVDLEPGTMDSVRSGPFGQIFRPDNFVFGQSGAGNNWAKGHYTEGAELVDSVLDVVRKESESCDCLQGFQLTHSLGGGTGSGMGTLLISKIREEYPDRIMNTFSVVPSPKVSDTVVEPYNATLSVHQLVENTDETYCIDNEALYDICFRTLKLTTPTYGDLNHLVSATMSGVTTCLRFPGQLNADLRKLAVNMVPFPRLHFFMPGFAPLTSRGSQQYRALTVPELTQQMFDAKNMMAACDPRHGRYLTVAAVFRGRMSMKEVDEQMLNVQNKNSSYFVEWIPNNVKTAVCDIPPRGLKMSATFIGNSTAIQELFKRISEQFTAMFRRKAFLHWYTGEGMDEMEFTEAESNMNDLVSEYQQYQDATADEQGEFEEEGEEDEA

For “untagged full-length human histone deacetylase 6 (from UniProt Q9UBN7-1 1-1215) (enzyme)”, the KM of the deacetylation of the acetylated αK40-derived peptide by HDAC6 (HPLC-based assay) [1] was 328 µM, the KM of the deacetylation of the acetylated αK40-derived peptide by HDAC6 (HPLC-based assay) [2] was 88 µM and the KM of the deacetylation of free tubulin dimers by HDAC6 (steady-state kinetics, Western blot quantification) [3] was 0.23 µM.
